± gives the standard deviation.
Assay: protein stability index of a GFP-peptide fusion (GPS, HEK-293T) (PSI 1-6); higher = more stable
Details: c terminus: a fixed tail appended
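Further: 24-mer peptide tiles fused after GFP, lentivirally expressed, FACS-sorted into six equal bins by GFP/DsRed ratio, decoded by Illumina sequencing, PSI is the read-weighted mean bin number.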

Sequence: KDIVQTVRSRLEEAGIKVHDVRLN [TENT5C]
- protein stability index (treatment: DMSO): 2.44 ± 0.35
- protein stability index (treatment: MLN4924 1 uM, 8 h): 2.78 ± 0.28

Sequence: SYVRSRKRLREEEAARLFKQIVSA [TRIB1]
- protein stability index (treatment: DMSO): 2.53 ± 0.38
- protein stability index (treatment: MLN4924 1 uM, 8 h): 3.09 ± 0.27

Sequence: EFSRATAEKVNQDMCMKVPDDPEH [CRYL1]
- protein stability index (treatment: DMSO): 5.62 ± 0.17
- protein stability index (treatment: MLN4924 1 uM, 8 h): 5.12 ± 0.75

Sequence: PSLSTITSTSSSITSSIPDTERLD [DVL3]
- protein stability index (treatment: DMSO): 5.23 ± 0.17
- protein stability index (treatment: MLN4924 1 uM, 8 h): 5.28 ± 0.16

Sequence: QSCWAFLPDLCLCRVFWWLGDRDR [FBXO39]
- protein stability index (treatment: DMSO): 2.2 ± 0.35
- protein stability index (treatment: MLN4924 1 uM, 8 h): 2.27 ± 0.36

Sequence: GASSPAAYDEALAELHAHGPAAFV [ZSWIM9]
- protein stability index (treatment: DMSO): 3.87 ± 0.22
- protein stability index (treatment: MLN4924 1 uM, 8 h): 3.99 ± 0.19

Sequence: IAPVLKLASHHNHFSQIVIFMLCT [OR10K2]
- protein stability index (treatment: DMSO): 3.25 ± 0.75
- protein stability index (treatment: MLN4924 1 uM, 8 h): 3.2 ± 0.83

Sequence: HSEVVEELVSADVIDLFDEQGLSA [RIPK4]
- protein stability index (treatment: DMSO): 5.02 ± 0.52
- protein stability index (treatment: MLN4924 1 uM, 8 h): 4.98 ± 0.52

Sequence: RNLDASPTYKGLLMSLQNQLKESK [CEP70]
- protein stability index (treatment: DMSO): 3.19 ± 0.083
- protein stability index (treatment: MLN4924 1 uM, 8 h): 3.36 ± 0.25

Sequence: MCMVMRGVQKMNSKTVTSTMLGVF [GCH1]
- protein stability index (treatment: DMSO): 2.31 ± 0.43
- protein stability index (treatment: MLN4924 1 uM, 8 h): 2.56 ± 0.44

Sequence: GWSKGFIGMHREMQVNPISKRMGP [RHOBTB1]
- protein stability index (treatment: DMSO): 2.63 ± 0.32
- protein stability index (treatment: MLN4924 1 uM, 8 h): 2.61 ± 0.12

Sequence: VFWPQLPNGLEAAYEFADRDEVRF [MMP1]
- protein stability index (treatment: DMSO): 2.86 ± 0.26
- protein stability index (treatment: MLN4924 1 uM, 8 h): 3.1 ± 0.3

Sequence: GPGTPTGPSLPSKRESPGVGGGSG [ZBTB22]
- protein stability index (treatment: DMSO): 5.14 ± 0.31
- protein stability index (treatment: MLN4924 1 uM, 8 h): 4.96 ± 0.27

Sequence: DRKLHSRPRKLYKHSSTSSRIAKG [BTBD10]
- protein stability index (treatment: DMSO): 3.81 ± 0.15
- protein stability index (treatment: MLN4924 1 uM, 8 h): 3.79 ± 0.25

Sequence: RRVGGSRILLRMTLGREVMSPLQA [NLN]
- protein stability index (treatment: DMSO): 2.15 ± 0.32
- protein stability index (treatment: MLN4924 1 uM, 8 h): 2.34 ± 0.35

Sequence: CAGPLEDAVTIPCGHTFCRLCLPA [TRIM15]
- protein stability index (treatment: DMSO): 2.69 ± 0.21
- protein stability index (treatment: MLN4924 1 uM, 8 h): 2.67 ± 0.37

Sequence: PSCRHEVVLDRHGVYGLQRNLLVE [TRIM55]
- protein stability index (treatment: DMSO): 2.32 ± 0.36
- protein stability index (treatment: MLN4924 1 uM, 8 h): 2.3 ± 0.47

Sequence: EPASAREAPASVVPFVRVKREREV [USP39]
- protein stability index (treatment: DMSO): 4.93 ± 0.3
- protein stability index (treatment: MLN4924 1 uM, 8 h): 4.87 ± 0.58

Sequence: YLLDYPNNLLSAPPPDVTQLTPPS [ANKRD17]
- protein stability index (treatment: DMSO): 3.23 ± 0.14
- protein stability index (treatment: MLN4924 1 uM, 8 h): 3.44 ± 0.2

Sequence: QLQLKIIEIEDEAEKWQKEKDRIK [TRIM29]
- protein stability index (treatment: DMSO): 3.35 ± 0.24
- protein stability index (treatment: MLN4924 1 uM, 8 h): 3.6 ± 0.36

Sequence: DKTDISSGRARQQDEEMLELPAPA [MLH1]
- protein stability index (treatment: DMSO): 5.42 ± 0.36

Sequence: WRNIILMSLLHLGALYGITLIPTC [SCD]
- protein stability index (treatment: DMSO): 2.83 ± 0.19
- protein stability index (treatment: MLN4924 1 uM, 8 h): 2.9 ± 0.42

Sequence: APATGSGTPGPFTKEGGMLAYYEV [CHIT1]
- protein stability index (treatment: DMSO): 2.55 ± 0.25
- protein stability index (treatment: MLN4924 1 uM, 8 h): 2.63 ± 0.16

Sequence: IADLFVADQRSRMLSIFYFAIPVG [SPNS1]
- protein stability index (treatment: DMSO): 3.08 ± 0.65
- protein stability index (treatment: MLN4924 1 uM, 8 h): 2.94 ± 0.41

Sequence: TVTSLQVPVLKPMDLMVEVSPRRI [PPP2R2C]
- protein stability index (treatment: DMSO): 2.52 ± 0.18
- protein stability index (treatment: MLN4924 1 uM, 8 h): 2.65 ± 0.32

Sequence: KQNPGKFCLLSCGILTFLAVLGRY [RETREG3]
- protein stability index (treatment: DMSO): 2.33 ± 0.55
- protein stability index (treatment: MLN4924 1 uM, 8 h): 2.54 ± 0.37

Sequence: PESVEASPVVVEKSNSYPHQLYTS [KMT2E]
- protein stability index (treatment: DMSO): 4.34 ± 0.32
- protein stability index (treatment: MLN4924 1 uM, 8 h): 4.44 ± 0.26

Sequence: RRHRLGGVGAVPGPGTPTGPSLPS [ZBTB22]
- protein stability index (treatment: DMSO): 4.25 ± 0.22
- protein stability index (treatment: MLN4924 1 uM, 8 h): 4.47 ± 0.16

Sequence: EAPKYHIPYWVAYYLALLLSLLVM [NSDHL]
- protein stability index (treatment: DMSO): 2.63 ± 0.36
- protein stability index (treatment: MLN4924 1 uM, 8 h): 2.53 ± 0.69

Sequence: WTTEQQQRFHEICSNLVKTRRRAV [ARL6IP1]
- protein stability index (treatment: DMSO): 2.8 ± 0.2
- protein stability index (treatment: MLN4924 1 uM, 8 h): 3.07 ± 0.41

Sequence: IDEQDSYIQSRADTMQNIESTIVE [STX5]
- protein stability index (treatment: DMSO): 5.23 ± 0.31
- protein stability index (treatment: MLN4924 1 uM, 8 h): 5.14 ± 0.12

Sequence: MQVIAIVLYLMMPIVNISEVLGPL [PHTF1]
- protein stability index (treatment: DMSO): 3.08 ± 0.29
- protein stability index (treatment: MLN4924 1 uM, 8 h): 3.34 ± 0.38

Sequence: GEELADVGGVLRGLNHSLSYDVAL [SCARA5]
- protein stability index (treatment: DMSO): 3.4 ± 0.17
- protein stability index (treatment: MLN4924 1 uM, 8 h): 3.41 ± 0.21

Sequence: ANSAFAVDLFKQLCEKEPLGNVLF [SERPINB5]
- protein stability index (treatment: DMSO): 2.08 ± 0.29
- protein stability index (treatment: MLN4924 1 uM, 8 h): 2.47 ± 0.3

Sequence: MEYCLEVIKENDPSGFLQISDALI [TRIM9]
- protein stability index (treatment: DMSO): 2.47 ± 0.29
- protein stability index (treatment: MLN4924 1 uM, 8 h): 2.69 ± 0.28

Sequence: FHIFRTLEVNRLMGKLLQQPNTYA [PKD2L1]
- protein stability index (treatment: DMSO): 2.46 ± 0.68
- protein stability index (treatment: MLN4924 1 uM, 8 h): 2.5 ± 0.26

Sequence: EVESLTAARNACRAGTEPSDAIRV [TRIP13]
- protein stability index (treatment: DMSO): 4.33 ± 0.15
- protein stability index (treatment: MLN4924 1 uM, 8 h): 4.51 ± 0.27

Sequence: AKHRLVPPAQGRVSRRLSPRKVST [TRIM9]
- protein stability index (treatment: DMSO): 4.37 ± 0.23
- protein stability index (treatment: MLN4924 1 uM, 8 h): 4.65 ± 0.12

Sequence: HLNRGNHEDHMVNLRYGFTKEVMN [PPEF2]
- protein stability index (treatment: DMSO): 2.99 ± 0.3
- protein stability index (treatment: MLN4924 1 uM, 8 h): 3.16 ± 0.42

Sequence: YKCLECGKAFSQNSGLINHQRIHT [ZNF24]
- protein stability index (treatment: DMSO): 4.95 ± 0.23
- protein stability index (treatment: MLN4924 1 uM, 8 h): 4.57 ± 0.26

Sequence: RPASSGGAHTLVNHGYAEPAAGRE [KCNA3]
- protein stability index (treatment: DMSO): 4.7 ± 0.44
- protein stability index (treatment: MLN4924 1 uM, 8 h): 4.86 ± 0.23

Sequence: CLMIGRDLVRLLQNVARIPEFELL [INTS3]
- protein stability index (treatment: DMSO): 2.49 ± 0.17
- protein stability index (treatment: MLN4924 1 uM, 8 h): 2.24 ± 0.25

Sequence: GPLVPRLAGMANHGSPQLGEGMFQ [TBX5]
- protein stability index (treatment: DMSO): 3.67 ± 0.26
- protein stability index (treatment: MLN4924 1 uM, 8 h): 3.75 ± 0.15

Sequence: GVSSVDSAFSSRGSLSLSFEREPS [RIPK4]
- protein stability index (treatment: DMSO): 4.33 ± 0.77
- protein stability index (treatment: MLN4924 1 uM, 8 h): 4.8 ± 0.52

Sequence: TLNVIELNVQKTVDYTGQAKAQVR [STX11]
- protein stability index (treatment: DMSO): 2.93 ± 0.28
- protein stability index (treatment: MLN4924 1 uM, 8 h): 3.19 ± 0.31

Source: the supplement of paper PMC10567573
